Where a chain is given by its changes, count along the chain named. Numbers in names are those of the source. Where “and” joins values, the source holds several entries; their conditions need not be identical. Identical values can stand only once.
B1: VRC20 V.Rev (antibody, V domains shown)
VH: not shown
VL: QSALTQPASVSGSPGQSITISCTGTSSDVGGYNYVSWYQQHPGKAPKLMIYEVSNRPSGVSNRFSGSKSGNTASLTISGLQAEDEADYYCNAFEFFGGGTKLTVL
B2: VRC01 VJ.Rev (antibody, V domains shown)
VH: not shown
VL: EIVLTQSPATLSLSPGERATLSCRASQSVSSYLAWYQQKPGQAPRLLIYDASNRATGIPARFSGSGSGTDFTLTISSLEPEDFAVYYCQQYEFFGQGTKLEIK
B3: VRC23 V.Rev (antibody, V domains shown)
VH: not shown
VL: B2 VL with L4M, L13V, Y32N, D50G, N53T, D70E, E79Q, P80S, F93T, L100V
B4: VRC01 L34M (antibody, V domains shown)
VH: QVQLVQSGGQMKKPGESMRISCRASGYEFIDCTMNWIRLAPGKRPEWMGWLKPRGGAVNYARPLQGRVTMTRDVYSDTAFLELRSLTVDDTAVYFCTRGKNCDYNWDFEHWGRGTPVIVSS
VL: EIVLTQSPGTLSLSPGETAIISCRTSQYGSLAWYQQRPGQAPRLVIYSGSTRAAGIPDRFSGSRWGPDYNLTISNLESGDFGVYYCQQYEFFGQGTKVQVD
B5: VRC01 with 33TL34 reverted to the germline-encoded 33YM34 (antibody, V domains shown)
VH: B4 VH with T33Y
VL: B4 VL
B6: DH651.4 with 33TL34 reverted to the germline-encoded 33YM34 (antibody, V domains shown)
VH: B4 VH with T33Y, K43R, N59S, N101T, E109A, R113Q, I118T
VL: B4 VL with D68E
B7: DH651.2 with 33TL34 reverted to the germline-encoded 33YM34 (antibody, V domains shown)
VH: B4 VH with G9A, T33Y, K43R, N101T, E109A, R113Q, I118T
VL: B4 VL with D68E
B8: DH651.1 with 33TL34 reverted to the germline-encoded 33YM34 (antibody, V domains shown)
VH: B4 VH with A24T, D31E, T33Y, K43R, P63S, L64F, V88P, N101D, D103N, I118T
VL: B4 VL with G9H, T10P, L11A, S12L, F81L
B9: VRC01 T33Y (antibody, V domains shown)
VH: B4 VH with T33Y, M34L
VL: B4 VL
B10: VRC02 with 33TL34 reverted to the germline-encoded 33YM34 (antibody, V domains shown)
VH: B4 VH with R23Q, T33Y, I37V, K43R, V88A, F95Y, I118T
VL: B4 VL with S74R, V83L
B11: 12A12 V.Rev (antibody, V domains shown)
VH: not shown
VL: DIQMTQSPSSLSASVGDRVTITCQASQDISNYLNWYQQKPGKAPKLLIYDASNLETGVPSRFSGSGSGTDFTFTISSLQPEDIATYYCAVLEFFGPGTKVEIK
B12: VRC01 V.Rev (antibody, V domains shown)
VH: not shown
VL: EIVLTQSPGTLSLSPGERATLSCRASQSVSSSYLAWYQQKPGQAPRLLIYGASSRATGIPDRFSGSGSGTDFTLTISRLEPEDFAVYYCQQYEFFGQGTKVQVD
B13: VRC18b V.Rev (antibody, V domains shown)
VH: not shown
VL: B12 VL with Q91I, Y92L, Q97R, K100R, Q102E, V103M, D104N
B14: VRC01 UCA (antibody, V domains shown)
VH: not shown
VL: B12 VL with V101L, Q102E, V103I, D104K
notes: also called VRC01 lineage unmutated common ancestor; VRC01 UCA IgG
B15: VRC03 V.Rev (antibody, V domains shown)
VH: not shown
VL: B12 VL with Y92F, Q97L, T99S, K100E, V101L, Q102E, D104H

Tests used:
Centromere protein B = molecular target: T1, Centromere protein B (Homo sapiens (product PRO-390 from …, UniProt P07199)); test: ELISA; settings: both partners purified
T1 construct: also called centromere B
T1 sequence (P07199 whole entry): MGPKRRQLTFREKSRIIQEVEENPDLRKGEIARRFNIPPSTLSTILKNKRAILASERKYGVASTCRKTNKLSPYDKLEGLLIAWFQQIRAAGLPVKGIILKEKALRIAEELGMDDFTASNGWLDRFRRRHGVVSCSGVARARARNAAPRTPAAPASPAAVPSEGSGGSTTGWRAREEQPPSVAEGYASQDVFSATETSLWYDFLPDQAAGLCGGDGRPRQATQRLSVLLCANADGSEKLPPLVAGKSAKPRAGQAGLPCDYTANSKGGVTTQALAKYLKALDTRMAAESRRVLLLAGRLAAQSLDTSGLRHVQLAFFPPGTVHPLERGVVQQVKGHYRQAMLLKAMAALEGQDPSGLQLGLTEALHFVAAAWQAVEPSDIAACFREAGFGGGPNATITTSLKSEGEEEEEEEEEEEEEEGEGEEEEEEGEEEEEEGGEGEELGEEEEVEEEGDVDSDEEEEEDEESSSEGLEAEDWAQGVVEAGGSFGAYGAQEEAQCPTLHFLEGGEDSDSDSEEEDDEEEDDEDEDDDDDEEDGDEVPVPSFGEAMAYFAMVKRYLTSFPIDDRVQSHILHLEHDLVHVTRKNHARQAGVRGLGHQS

[1] = molecular target: T2, eOD-GT8 (monomer), synthetic construct eOD-GT8-Avi-3C-His (synthetic construct (engineered HIV-1 …))
Scl-70 antigen = Scl-70 antigen (Bos taurus (assumed), UniProt A0AAA9TV68); test: ELISA; settings: both partners purified
Sequence of Scl-70 antigen (P11387 whole entry): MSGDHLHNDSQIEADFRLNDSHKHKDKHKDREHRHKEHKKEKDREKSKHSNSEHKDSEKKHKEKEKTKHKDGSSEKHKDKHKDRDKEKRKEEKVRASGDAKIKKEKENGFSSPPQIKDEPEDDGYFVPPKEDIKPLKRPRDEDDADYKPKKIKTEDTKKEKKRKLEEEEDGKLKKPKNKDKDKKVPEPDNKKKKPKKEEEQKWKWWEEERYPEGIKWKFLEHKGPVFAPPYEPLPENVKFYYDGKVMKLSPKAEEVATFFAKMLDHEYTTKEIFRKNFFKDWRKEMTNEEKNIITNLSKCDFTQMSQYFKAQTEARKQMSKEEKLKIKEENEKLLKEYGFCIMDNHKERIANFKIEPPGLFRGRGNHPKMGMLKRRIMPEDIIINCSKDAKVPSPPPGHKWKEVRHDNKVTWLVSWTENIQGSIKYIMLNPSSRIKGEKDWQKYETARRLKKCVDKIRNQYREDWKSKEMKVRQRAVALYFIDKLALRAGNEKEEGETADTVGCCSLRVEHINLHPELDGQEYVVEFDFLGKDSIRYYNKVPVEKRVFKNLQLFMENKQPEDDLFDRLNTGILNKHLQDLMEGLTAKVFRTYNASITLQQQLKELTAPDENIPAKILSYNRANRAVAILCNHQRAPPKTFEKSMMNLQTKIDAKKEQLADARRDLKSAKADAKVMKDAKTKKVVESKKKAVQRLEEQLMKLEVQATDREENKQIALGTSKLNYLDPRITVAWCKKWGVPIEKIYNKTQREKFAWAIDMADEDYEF

SSB (La) antigen = SSB (La) antigen (Bos taurus (assumed), UniProt P10881); test: ELISA; settings: both partners purified
Sequence of SSB (La) antigen (P05455 whole entry): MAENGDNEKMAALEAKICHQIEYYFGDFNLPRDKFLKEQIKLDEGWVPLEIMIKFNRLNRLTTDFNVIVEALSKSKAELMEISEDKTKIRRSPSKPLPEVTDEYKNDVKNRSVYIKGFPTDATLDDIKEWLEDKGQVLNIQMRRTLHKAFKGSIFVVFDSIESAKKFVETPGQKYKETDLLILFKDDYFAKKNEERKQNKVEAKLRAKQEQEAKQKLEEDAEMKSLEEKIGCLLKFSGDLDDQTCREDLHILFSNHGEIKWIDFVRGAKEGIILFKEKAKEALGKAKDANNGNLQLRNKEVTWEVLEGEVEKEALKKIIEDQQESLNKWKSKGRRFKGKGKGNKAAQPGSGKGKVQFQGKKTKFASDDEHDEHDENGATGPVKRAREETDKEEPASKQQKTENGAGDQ

Jo-1 antigen = Jo-1 antigen (Bos taurus (assumed), UniProt Q2KI84); test: ELISA; settings: both partners purified
Sequence of Jo-1 antigen (P12081 whole entry): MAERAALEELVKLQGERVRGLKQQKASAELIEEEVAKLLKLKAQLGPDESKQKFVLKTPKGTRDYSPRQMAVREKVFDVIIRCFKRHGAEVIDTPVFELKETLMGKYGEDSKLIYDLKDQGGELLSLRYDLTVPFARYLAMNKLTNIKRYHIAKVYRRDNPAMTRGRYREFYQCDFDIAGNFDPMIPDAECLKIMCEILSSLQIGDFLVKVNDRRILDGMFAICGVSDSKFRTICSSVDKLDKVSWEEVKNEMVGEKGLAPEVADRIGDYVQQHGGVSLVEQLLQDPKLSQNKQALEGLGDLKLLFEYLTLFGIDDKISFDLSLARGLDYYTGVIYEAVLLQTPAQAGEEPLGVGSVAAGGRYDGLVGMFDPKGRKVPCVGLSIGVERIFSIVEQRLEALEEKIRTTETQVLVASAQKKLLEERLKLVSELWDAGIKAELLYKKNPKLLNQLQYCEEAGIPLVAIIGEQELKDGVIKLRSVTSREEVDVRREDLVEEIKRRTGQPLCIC

[2] = molecular target: Ubiquitin Protein Ligase E3A (UBE3A) (Homo sapiens, assumed, UniProt Q05086); test: ELISA; settings: both partners purified
Sequence of Ubiquitin Protein Ligase E3A (UBE3A) (Q05086 whole entry): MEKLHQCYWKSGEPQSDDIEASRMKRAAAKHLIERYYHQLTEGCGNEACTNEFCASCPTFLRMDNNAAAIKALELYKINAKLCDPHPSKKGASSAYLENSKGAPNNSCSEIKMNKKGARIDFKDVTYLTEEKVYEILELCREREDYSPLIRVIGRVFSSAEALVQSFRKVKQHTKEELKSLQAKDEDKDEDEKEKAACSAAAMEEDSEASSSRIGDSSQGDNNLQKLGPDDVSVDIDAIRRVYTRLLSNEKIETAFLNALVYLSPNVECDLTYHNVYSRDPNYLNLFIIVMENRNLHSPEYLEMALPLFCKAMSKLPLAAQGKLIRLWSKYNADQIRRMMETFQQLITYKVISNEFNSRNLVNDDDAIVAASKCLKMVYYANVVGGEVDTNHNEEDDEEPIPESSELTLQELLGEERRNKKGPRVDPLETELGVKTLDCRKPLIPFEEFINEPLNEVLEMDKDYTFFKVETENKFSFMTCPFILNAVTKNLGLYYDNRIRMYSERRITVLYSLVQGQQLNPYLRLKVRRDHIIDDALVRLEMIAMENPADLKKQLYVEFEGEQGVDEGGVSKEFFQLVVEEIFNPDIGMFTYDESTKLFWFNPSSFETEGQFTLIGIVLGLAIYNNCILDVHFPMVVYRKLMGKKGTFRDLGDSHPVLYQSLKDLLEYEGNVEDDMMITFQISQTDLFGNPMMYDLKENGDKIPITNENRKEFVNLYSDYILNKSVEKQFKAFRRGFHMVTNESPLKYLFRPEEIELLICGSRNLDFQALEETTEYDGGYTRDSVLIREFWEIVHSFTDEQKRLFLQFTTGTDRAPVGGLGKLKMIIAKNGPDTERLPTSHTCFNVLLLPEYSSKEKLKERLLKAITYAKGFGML

[3] = molecular target: T3, eOD-GT6, synthetic construct eOD-GT6-Avi-3C-His (synthetic construct (engineered HIV-1 …)); test: SPR; settings: both partners purified
T3 construct: source: produced in house (Duke Human Vaccine Institute and VRC/NIAID)
T3 sequence (heavy, as listed by the source): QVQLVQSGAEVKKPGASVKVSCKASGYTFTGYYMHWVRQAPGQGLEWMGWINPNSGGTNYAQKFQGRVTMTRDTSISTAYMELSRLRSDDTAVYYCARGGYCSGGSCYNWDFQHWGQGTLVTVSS

[4] = molecular target: T2, eOD-GT8 (monomer), synthetic construct …; test: SPR; settings: both partners purified
eOD-GT8 (heptamer) = eOD-GT8 (heptamer) (synthetic construct (engineered HIV-1 …)); test: BLI; settings: both partners purified
Sequence of eOD-GT8 (heptamer) (synthetic construct (engineered HIV-1 …)) (heavy, as listed by the source): as above

eOD-GT8 (24-mer) = eOD-GT8 (24-mer) (synthetic construct (engineered HIV-1 …)); test: BLI; settings: both partners purified
Sequence of eOD-GT8 (24-mer) (synthetic construct (engineered HIV-1 …)) (heavy, as listed by the source): as above

| Binder | binding result [1] | binding result [2] | further results |
| --- | --- | --- | --- |
| B1 |  |  | binding result (Centromere protein B): binds |
| B2 | binds |  |  |
| B3 |  |  | binding result (Scl-70 antigen): binds; binding result (SSB (La) antigen): binds; binding result (Jo-1 antigen): binds; binding result (Centromere protein B): binds |
| B4 |  | binds |  |
| B5 |  | no binding (tested: 100 μg/ml) |  |
| B6 |  | no binding (tested: 100 μg/ml) |  |
| B7 |  | no binding (tested: 100 μg/ml) |  |
| B8 |  | no binding (tested: 100 μg/ml) |  |
| B9 |  | no binding (tested: 100 μg/ml) |  |
| B10 |  | no binding (tested: 100 μg/ml) |  |
| B11 | binds |  |  |
| B12 | binds |  |  |
| B13 | binds |  |  |
| B14 |  |  | Kd [3]: 2400 nM and 2500 nM; koff [3]: 0.068 s⁻¹; kon [3]: 3000 M⁻¹ s⁻¹; Kd [4]: < 0.1 nM and 0.25 nM; binding result (eOD-GT8 (heptamer)): binds; binding result (eOD-GT8 (24-mer)): binds |
| B15 | binds |  |  |

Source: paper PMC6303191 (Immunity, 2018)
